Two molecules from US20240352439, “POLYPEPTIDES AND METHODS FOR MODIFYING NUCLEIC ACIDS” (THE UNIVERSITY OF CHICAGO, published 2024) can be followed below.

Common to all, as to assay: kapp, same conditions
The target in one data set is TadA8e (Escherichia coli). To be noted: tags: MBP removed by TEV; label: 5'-FAM. The source says: (§1) We compared adenine deamination efficiency of TadA8r in ssDNA with TadA8.20 and TadA8e. Maltose binding protein (MBP) fused TadA8r, TadA8.20, and TadA8e were purified through immobilized metal affinity chromatography. A Tobacco Etch Virus (TEV) protease cutting site was installed between MBP and TadA*. After TEV proteinase treatment, TadA8r, TadA8.20, and TadA8e were purified by immobilized metal affinity chromatography, ion-exchange chromatography, and size-exclusion chromatography. DNA deamination assays were carried out using […] ssDNA oligos under single-turnover conditions. A-to-I conversion was measured to determine the apparent first-order deamination rate constant (kₐₚₚ) (FIG. 2a). Both TadA8.20 and TadA8e preferred TA over GA (kₐₚₚ=0.07 min⁻¹ and 0.08 min⁻¹ for TadA 8.20 on GA and TA probes, respectively; kₐₚₚ=0.01 min⁻¹ and 0.02 min⁻¹ for TadA8e on GA and TA probes, respectively). The kₐₚₚ for TadA8r is much higher—0.55 min⁻¹ on the GA probe and 0.39 min⁻¹, on the TA probe).
(§2) The single turnover DNA deamination reactions containing 4 uM TadA variants in deamination buffer (50 mM Tris, 25 mM KCl, 2.5 mM MgCl₂, 2 mM dithiothreitol, and 10% (v/v) glycerol; pH 7.5) and 5′ Fluorescein labeled ssDNA (IDT) (Supplementary Table 6) to a final concentration of 200 nM. All reactions were incubated at 37° C. At various time points (0, 1, 5, 10, 20, 60, 180 mins), 10 uL reaction mixture were aliquoted and quenched by adding 10 ul of hot water and incubating at 95° C. for 10 min. Reaction mixtures were supplied with 100 ug/ml Proteinase K (Fisher scientific) and incubated at 55° C. for 3 h followed by inactivating at 85° C. for 30 mins and 95° C. for 15 mins. To detected adenosine deamination, reaction mixture was incubated with 10 unit of E. coli EndonucleaseV in 1×NEB4 buffer at 37° C. for 1 h. After cleavage by EndoV, samples were mixed with 2-fold PAGE gel loading buffer (95% formamide, 10 mM EDTA, 0.025% SDS), heated at 95° C. for 5 min, resolved on 15% (v/v) denaturing polyacrylamide gel. Uncleavage substrate and cleavage product were visualized by ChemiDoc XRS+(Bio-rad) under fluorescein channel. DNA band quantification were analyzed using ImageJ Software. Curve fitting was done in GraphPad.

In a further data set the target is TadA8.20 (Escherichia coli, UniProt P68398 SEQ:1-167). The note with it: tags: MBP removed by TEV; label: 5'-FAM.
From the text: as §1, §2

A further data set concerns the target TadA8r (TadA-RA5.2) (Escherichia coli). The note with it: tags: 6xHis-MBP removed by TEV; label: 5'-FAM.
From the text: as §1, §2

Regarding TGGGTTGGTGATCGTTTGGTGG (ssDNA) [GA probe], the activity with TadA8e amounted to 0.01 min⁻¹; in the data set with TadA8.20, 0.07 min⁻¹.
Turning to TGGGTTGGTTATCGTTTGGTGG (ssDNA) [TA probe], the activity with TadA8e came out at 0.02 min⁻¹; with TadA8.20 it was 0.08 min⁻¹; in the data set with TadA8r (TadA-RA5.2) it was 0.39 min⁻¹.
